Source: paper PMC10411625, “Rationally designed stapled peptides allosterically inhibit PTBP1–RNA-binding” (Chemical Science, 2023)

Assay: circular dichroism
Settings: 20 mM sodium phosphate, 10 mM NaF; pH 8; 20 °C; 50 uM

Row | Compound | helicity [%]
1 | CC(=O)N[C@@H](CC(N)=O)C(=O)N[C@@H](CCC(N)=O)C(=O)N[C@@]1(C)CCCC=CCCC[C@]2(CCCC=CCCC[C@](C)(C(=O)N[C@H](C(=O)N[C@@H](CC(N)=O)C(N)=O)C(C)C)NC(=O)[C@H](CCC(N)=O)NC(=O)[C@H](CC(C)C)NC(=O)[C@H](C)NC2=O)NC(=O)[C@H](CCC(N)=O)NC(=O)[C@H](C)NC(=O)[C@H](CCNC(=N)N)NC1=O | 100
2 | Ac-NQARAQAALQAVNR-NH2 | 20.2
3 | CC(=O)N[C@@H](CC(N)=O)C(=O)N[C@@H](CCC(N)=O)C(=O)N[C@@]1(C)CCCC=CCCC[C@]2(CCCC=CCCC[C@](C)(C(=O)N[C@H](C(=O)N[C@@H](CC(N)=O)C(N)=O)C(C)C)NC(=O)[C@H](CCC(N)=O)NC(=O)[C@H](CC(N)=O)NC(=O)[C@H](C)NC2=O)NC(=O)[C@H](CCC(N)=O)NC(=O)[C@H](C)NC(=O)[C@H](CCCNC(=N)N)NC1=O | 100
4 | CC(=O)N[C@@H](CC(N)=O)C(=O)N[C@@H](CCC(N)=O)C(=O)N[C@@]1(C)CCCC=CCCC[C@]2(CCCC=CCCC[C@](C)(C(=O)N[C@H](C(=O)N[C@@H](CC(N)=O)C(N)=O)C(C)C)NC(=O)[C@H](CCC(N)=O)NC(=O)[C@H](CC(C)C)NC(=O)[C@H](C)NC2=O)NC(=O)[C@H](CCC(N)=O)NC(=O)[C@H](C)NC(=O)[C@H](CCCNC(=N)N)NC1=O | 100
5 | CC(=O)N[C@H](C(=O)N[C@@H](CCC(N)=O)C(=O)N[C@@]1(C)CCCC=CCCC[C@]2(CCCC=CCCC[C@](C)(C(=O)N[C@H](C(=O)N[C@@H](CC(N)=O)C(N)=O)C(C)C)NC(=O)[C@H](CCC(N)=O)NC(=O)[C@H](CC(C)C)NC(=O)[C@H](C)NC2=O)NC(=O)[C@H](CCC(N)=O)NC(=O)[C@H](C)NC(=O)[C@H](CCCNC(=N)N)NC1=O)C(C)C | 100
6 | CC(=O)N[C@@H](CC(N)=O)C(=O)N[C@@H](CCC(N)=O)C(=O)N[C@@H](C)C(=O)N[C@@H](CCCNC(=N)N)C(=O)N[C@@H](C)C(=O)N[C@@H](CCC(N)=O)C(=O)N[C@@]1(C)CCCCCCCC[C@@](C)(C(=O)N[C@H](C(=O)N[C@@H](CC(N)=O)C(N)=O)C(C)C)NC(=O)[C@H](CCC(N)=O)NC(=O)[C@H](CC(C)C)NC(=O)[C@H](C)NC1=O | 57.8
7 | CC(=O)N[C@@H](CC(N)=O)C(=O)N[C@@H](CCC(N)=O)C(=O)N[C@@]1(C)CCCCCCCC[C@@](C)(C(=O)N[C@@H](C)C(=O)N[C@@H](CC(C)C)C(=O)N[C@@H](CCC(N)=O)C(=O)N[C@@H](C)C(=O)N[C@H](C(=O)N[C@@H](CC(N)=O)C(N)=O)C(C)C)NC(=O)[C@H](CCC(N)=O)NC(=O)[C@H](C)NC(=O)[C@H](CCCNC(=N)N)NC1=O | 92.3
8 | CC(=O)N[C@@H](CC(N)=O)C(=O)N[C@@H](CCC(N)=O)C(=O)N[C@@H](C)C(=O)N[C@@H](CCCNC(=N)N)C(=O)N[C@@H](C)C(=O)N[C@@]1(C)CCCCCCCC[C@@](C)(C(=O)N[C@@H](C)C(=O)N[C@H](C(=O)N[C@@H](CC(N)=O)C(N)=O)C(C)C)NC(=O)[C@H](CC(C)C)NC(=O)[C@H](C)NC(=O)[C@H](C)NC1=O | 77.3
9 | CC(=O)N[C@@H](CC(N)=O)C(=O)N[C@@H](CCC(N)=O)C(=O)N[C@@]1(C)CCCC=CCCC[C@]2(CCCC=CCCC[C@](C)(C(=O)N[C@H](C(=O)N[C@@H](CC(=O)O)C(N)=O)C(C)C)NC(=O)[C@H](CCC(N)=O)NC(=O)[C@H](CC(C)C)NC(=O)[C@H](C)NC2=O)NC(=O)[C@H](CCC(N)=O)NC(=O)[C@H](C)NC(=O)[C@H](CCCNC(=N)N)NC1=O | 98.2
